The values that follow are results of earlier work, collected in publication PMC11273449.

What is called Kd is the concentration at which binding is half-saturated.

Data set [1] has as its target Spike S1 subunit, BA.1 (SARS-CoV-2 BA.1 (Omicron)) (UniProt P0DTC2). Description: cited. The settings on record: 5' hexynyl.
Data set [2] relates to Influenza A virion (Influenza A/PR/8/34). Description: cited. The note with it: 5' hexynyl.

On to “TTTTTACGCCAAGGTGTCACTCCGTAGGGTTTGGCTCCGGGCCTGGCGTCGGTCGCGAAGCATCTCCTTGGCGT [Aptamer 4 (particle)]”, for which, in data set [1], the dissociation constant Kd is 5 nM.

Consider “TTTTTGGCAGGAAGACAAACAGCCAGCGTGACAGCGACGCGTAGGGACCGGCATCCGCGGGTGGTCTGTGGTGCTGT [Influenza A aptamer (particle)]”, for which the equilibrium dissociation constant (Kd) in data set [2] was 55 nM.
